Tested on: Escherichia coli TOP10
Test: shrunken log2 fold change of peptide-encoding DNA abundance (4.5 h post-induction vs induction); higher = less antimicrobial activity (less host growth inhibition)
Conditions: time post-induction: 4.5 h; library: site-saturation at positions 5, 18, 19, 20
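Also: peptides expressed intracellularly from a pBAD plasmid library in pooled LB shake-flask culture, induced with 0.3% L-arabinose, DNA abundance read by NGS, three biological replicates, DESeq2 with apeglm shrinkage.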

Row | Sequence | shrunken log2 fold change
1 | RRIRWRPPRLPRPRPRPCFQPRP | -0.222
2 | RRIRGRPPRLPRPRPRPCHDPRP | 0.458
3 | RRIRYRPPRLPRPRPRPERLPRP | -0.00207
4 | RRIRGRPPRLPRPRPRPVMKPRP | 0.729
5 | RRIRNRPPRLPRPRPRPSGIPRP | -0.983
6 | RRIRERPPRLPRPRPRPPFRPRP | 0.173
7 | RRIRVRPPRLPRPRPRPNMRPRP | -0.124
8 | RRIRFRPPRLPRPRPRPNDIPRP | -0.169
9 | RRIRPRPPRLPRPRPRPEPVPRP | 0.12
10 | RRIRNRPPRLPRPRPRPLNLPRP | -0.25
11 | RRIRERPPRLPRPRPRPVMRPRP | 0.453
12 | RRIRWRPPRLPRPRPRPRDLPRP | 0.276
13 | RRIRIRPPRLPRPRPRPPIQPRP | -0.468
14 | RRIRGRPPRLPRPRPRPTWLPRP | 2.72
15 | RRIRIRPPRLPRPRPRPRTIPRP | -0.141
16 | RRIRIRPPRLPRPRPRPCFRPRP | -0.233
17 | RRIRHRPPRLPRPRPRPNEAPRP | 0.0232
18 | RRIRFRPPRLPRPRPRPSNLPRP | -0.56
19 | RRIRTRPPRLPRPRPRPLHCPRP | -0.148
20 | RRIRCRPPRLPRPRPRPVRGPRP | 0.59
21 | RRIRMRPPRLPRPRPRPETSPRP | 0.163
22 | RRIRGRPPRLPRPRPRPCFSPRP | 0.0442

Row | Sequence | shrunken log2 fold change
23 | RRIRWRPPRLPRPRPRPHAWPRP | 0.0328
24 | RRIRYRPPRLPRPRPRPNEAPRP | -0.017
25 | RRIRLRPPRLPRPRPRPTYHPRP | -0.358
26 | RRIRMRPPRLPRPRPRPKTYPRP | -0.0099
27 | RRIRFRPPRLPRPRPRPLQPPRP | 0.104
28 | RRIRCRPPRLPRPRPRPAQPPRP | 0.366
29 | RRIRCRPPRLPRPRPRPSGVPRP | -0.311
30 | RRIRKRPPRLPRPRPRPTLWPRP | 1.19
31 | RRIRFRPPRLPRPRPRPQFYPRP | -0.592
32 | RRIRTRPPRLPRPRPRPDTKPRP | -0.212
33 | RRIRKRPPRLPRPRPRPVGLPRP | 0.174
34 | RRIRRRPPRLPRPRPRPADPPRP | 0.403
35 | RRIRHRPPRLPRPRPRPCPGPRP | -0.541
36 | RRIRLRPPRLPRPRPRPMIVPRP | -0.199
37 | RRIRPRPPRLPRPRPRPEWNPRP | 0.07
38 | RRIRCRPPRLPRPRPRPTWQPRP | 0.288
39 | RRIRIRPPRLPRPRPRPMDWPRP | 0.0118
40 | RRIRLRPPRLPRPRPRPMNCPRP | -0.507
41 | RRIRPRPPRLPRPRPRPALKPRP | 0.128
42 | RRIRYRPPRLPRPRPRPLPDPRP | -0.108
43 | RRIRIRPPRLPRPRPRPHTIPRP | -0.572
44 | RRIRRRPPRLPRPRPRPIKLPRP | -0.128

Row | Sequence | shrunken log2 fold change
45 | RRIRHRPPRLPRPRPRPHMIPRP | 0.13
46 | RRIRKRPPRLPRPRPRPPCEPRP | 0.509
47 | RRIRPRPPRLPRPRPRPDRFPRP | -0.137
48 | RRIRCRPPRLPRPRPRPKDGPRP | 0.408
49 | RRIRYRPPRLPRPRPRPGHFPRP | -0.0316
50 | RRIRNRPPRLPRPRPRPYQHPRP | -0.549
51 | RRIRWRPPRLPRPRPRPKYTPRP | -0.315
52 | RRIRSRPPRLPRPRPRPLQMPRP | 0.24
53 | RRIRHRPPRLPRPRPRPALIPRP | 0.0852
54 | RRIRCRPPRLPRPRPRPMTGPRP | -0.103
55 | RRIRSRPPRLPRPRPRPIVDPRP | 0.115
56 | RRIRYRPPRLPRPRPRPIAKPRP | 0.0673
57 | RRIRKRPPRLPRPRPRPGGPPRP | 0.453
58 | RRIRQRPPRLPRPRPRPLWMPRP | -0.165
59 | RRIRQRPPRLPRPRPRPDNIPRP | -0.00584
60 | RRIRCRPPRLPRPRPRPDMQPRP | -0.672
61 | RRIRNRPPRLPRPRPRPRFCPRP | 0.254
62 | RRIRPRPPRLPRPRPRPFPSPRP | 0.0138
63 | RRIRRRPPRLPRPRPRPYQHPRP | -0.983
64 | RRIRHRPPRLPRPRPRPCTWPRP | -0.0924
65 | RRIRQRPPRLPRPRPRPGVTPRP | 0.0644
66 | RRIRGRPPRLPRPRPRPYEDPRP | -0.017

Row | Sequence | shrunken log2 fold change
67 | RRIRERPPRLPRPRPRPHMQPRP | -0.551
68 | RRIRMRPPRLPRPRPRPHRGPRP | 0.0388
69 | RRIRLRPPRLPRPRPRPWTTPRP | -0.206
70 | RRIRKRPPRLPRPRPRPRGYPRP | 0.166
71 | RRIRIRPPRLPRPRPRPNDYPRP | -0.312
72 | RRIRTRPPRLPRPRPRPKSCPRP | -0.0893
73 | RRIRQRPPRLPRPRPRPGPDPRP | 0.163
74 | RRIRQRPPRLPRPRPRPFCVPRP | -0.0258
75 | RRIRMRPPRLPRPRPRPMEDPRP | 0.0119
76 | RRIRCRPPRLPRPRPRPFAKPRP | -0.108
77 | RRIRPRPPRLPRPRPRPQPVPRP | 0.212
78 | RRIRARPPRLPRPRPRPHKAPRP | 0.102
79 | RRIRIRPPRLPRPRPRPDYCPRP | -0.163
80 | RRIRQRPPRLPRPRPRPGESPRP | 0.0357
81 | RRIRRRPPRLPRPRPRPSNDPRP | -0.162
82 | RRIRFRPPRLPRPRPRPIHAPRP | -0.0507
83 | RRIRARPPRLPRPRPRPQLWPRP | 0.569
84 | RRIRKRPPRLPRPRPRPAAQPRP | 0.814
85 | RRIRGRPPRLPRPRPRPLTNPRP | 0.364
86 | RRIRQRPPRLPRPRPRPCACPRP | 0.0128
87 | RRIRIRPPRLPRPRPRPIEHPRP | 0.00487
88 | RRIRDRPPRLPRPRPRPLEKPRP | 0.0929

Row | Sequence | shrunken log2 fold change
89 | RRIRMRPPRLPRPRPRPHNEPRP | -0.356
90 | RRIRYRPPRLPRPRPRPDTWPRP | -0.0135
91 | RRIRPRPPRLPRPRPRPYLPPRP | -0.431
92 | RRIRCRPPRLPRPRPRPANMPRP | -0.277
93 | RRIRLRPPRLPRPRPRPNFWPRP | 0.199
94 | RRIRDRPPRLPRPRPRPEYSPRP | 0.0929
95 | RRIRNRPPRLPRPRPRPECRPRP | 0.263
96 | RRIRQRPPRLPRPRPRPHGMPRP | 0.0346
97 | RRIRQRPPRLPRPRPRPLNLPRP | -0.249
98 | RRIRARPPRLPRPRPRPEFPPRP | 0.962
99 | RRIRNRPPRLPRPRPRPMFCPRP | 0.0294
100 | RRIRNRPPRLPRPRPRPMSIPRP | 0.00262
101 | RRIRMRPPRLPRPRPRPWNAPRP | -0.0284
102 | RRIRLRPPRLPRPRPRPMMEPRP | 0.195
103 | RRIRCRPPRLPRPRPRPQADPRP | 0.0688
104 | RRIRIRPPRLPRPRPRPCHGPRP | -0.545
105 | RRIRMRPPRLPRPRPRPQCTPRP | 0.0479
106 | RRIRWRPPRLPRPRPRPRQYPRP | -0.534
107 | RRIRMRPPRLPRPRPRPSDFPRP | -0.764
108 | RRIRVRPPRLPRPRPRPVHSPRP | 0.0275
109 | RRIRSRPPRLPRPRPRPGEEPRP | 0.499

Source: the supplement of paper PMC9112550, “Optimization of the antimicrobial peptide Bac7 by deep mutational scanning” (BMC Biology, 2022)
